{"source": "paper PMC8431786", "about": "“In Search of Monocot Phosphodiesterases: Identification of a Calmodulin Stimulated Phosphodiesterase from Brachypodium distachyon” (International Journal of Molecular Sciences, 2021)", "substrate": "[H][C@@]12COP(=O)(O)O[C@@]1([H])[C@@H](O)[C@H](n1cnc3c(=O)[nH]c(N)nc31)O2", "experiment": "LC-MS/MS of GMP formed, Michaelis-Menten fit", "format": "biochemical, Brachypodium distachyon", "conditions": "3 mM Tris-HCl pH 8.0, 37 °C, 25 min, 0.5 mM MgCl2 and MnCl2, 0.1% 2-mercaptoethanol, no calmodulin"}
{"protein": "BDPDE1 (Brachypodium distachyon) (protein, GST-BDPDE1 fusion (pGEX-6P-2, N-terminal GST kept), cDNA from leaf and stalk RNA, E. coli BL21(DE3) pLysS, glutathione-Sepharose) MWPASKTQMHMFCLCRLDQPSCLVIGSARSINASTPKELSQNASSREIENRLLRVRRSATTGRSEPLARFNHPIQFQHARPPPAPAHGAHEGKKMAAAAVRRAEELVEREMSGRDASHDAAHALRVRDLALSLAAEQGLSSPDRLLIVELAALLHDIGDYKYTKDNMEDMSIVERFLQDVGLEKGQREEIVSIITGMGFKNEVSGKAAEPTLEFAVVQDADRLDAIGAIGVARCFTYGGSKNSALHDPKVLPRDNLSKEKYMSKEKQTSINHFHEKLFKLKDMMKTEAGKRRAEKRHKFMEDFVAEFYEEWSGRA", "values": [{"measurement": "Km", "value": 113.3, "unit": "µM"}]}
